According to patent US20250154231A1:
Like-named read-outs stand apart in the source and are kept apart here.

Tests used:
Assay in all cases: cell-based or functional assay
[1] = biological target: SARS-CoV-2 Alpha (B.1.1.7) spike (S) protein (SARS-CoV-2) (UniProt P0DTC2)
[2] = biological target: SARS-CoV-2 Alpha spike (S) protein (SARS-CoV-2) (UniProt P0DTC2)
[3] = biological target: SARS-CoV-2 Beta (B.1.351) spike (S) protein (SARS-CoV-2) (UniProt P0DTC2)
[4] = biological target: SARS-CoV-2 Beta spike (S) protein (SARS-CoV-2) (UniProt P0DTC2)
[5] = biological target: SARS-CoV-2 Delta spike (S) protein (SARS-CoV-2) (UniProt P0DTC2)
[6] = biological target: SARS-CoV-2 Gamma (P.1) spike (S) protein (SARS-CoV-2) (UniProt P0DTC2)
[7] = biological target: SARS-CoV-2 Gamma spike (S) protein (SARS-CoV-2) (UniProt P0DTC2)
[8] = biological target: SARS-CoV-2 Omicron (BA.1) spike (S) protein, live virus isolate (SARS-CoV-2) (UniProt P0DTC2)
[9] = biological target: SARS-CoV-2 Omicron BA.1 spike (S) protein of the live isolate (SARS-CoV-2) (UniProt P0DTC2)
[10] = biological target: SARS-CoV-2 Omicron BA.1 spike (S) protein of the pseudovirus (SARS-CoV-2) (UniProt P0DTC2)
[11] = biological target: SARS-CoV-2 Omicron BA.1 spike (S) protein, pseudovirus construct (SARS-CoV-2) (UniProt P0DTC2)
[12] = biological target: SARS-CoV-2 Omicron BA.1.1 spike (S) protein (SARS-CoV-2) (UniProt P0DTC2)
[13] = biological target: SARS-CoV-2 Omicron BA.1.1 spike (S) protein, pseudovirus construct (SARS-CoV-2) (UniProt P0DTC2)
[14] = biological target: SARS-CoV-2 Omicron BA.2 spike (S) protein (SARS-CoV-2) (UniProt P0DTC2)
[15] = biological target: SARS-CoV-2 Omicron BA.2 spike (S) protein, pseudovirus construct (SARS-CoV-2) (UniProt P0DTC2)
[16] = biological target: SARS-CoV-2 Omicron BA.3 spike (S) protein (SARS-CoV-2) (UniProt P0DTC2)
[17] = biological target: SARS-CoV-2 Omicron BA.3 spike (S) protein, pseudovirus construct (SARS-CoV-2) (UniProt P0DTC2)
[18] = biological target: SARS-CoV-2 Omicron BA.4/5 spike (S) protein (SARS-CoV-2) (UniProt P0DTC2)
[19] = biological target: SARS-CoV-2 Victoria spike (S) protein (SARS-CoV-2) (UniProt P0DTC2)
[20] = biological target: SARS-CoV-2 spike (S) protein, Omicron BA.1 (SARS-CoV-2) (UniProt P0DTC2)
[21] = biological target: SARS-CoV-2 spike (S) protein, Omicron BA.1.1 (SARS-CoV-2) (UniProt P0DTC2)
[22] = biological target: SARS-CoV-2 spike (S) protein, Omicron BA.2 (SARS-CoV-2) (UniProt P0DTC2)
[23] = biological target: SARS-CoV-2 spike (S) protein, Omicron BA.2.75 (SARS-CoV-2) (UniProt P0DTC2)
[24] = biological target: SARS-CoV-2 spike (S) protein, Omicron BA.3 (SARS-CoV-2) (UniProt P0DTC2)
[25] = biological target: SARS-CoV-2 spike (S) protein, Omicron BA.4/5 (SARS-CoV-2) (UniProt P0DTC2)
[26] = biological target: SARS-CoV-2 spike (S) protein, Victoria strain (SARS-CoV-2) (UniProt P0DTC2)
[27] = biological target: SARS-CoV-2 spike (S) protein, Omicron BA.2 (SARS-CoV-2) (UniProt P0DTC2); remark: listed apart in the source
[28] = biological target: SARS-CoV-2 spike (S) protein, Omicron BA.2.75 (SARS-CoV-2) (UniProt P0DTC2); remark: listed apart in the source
[29] = biological target: SARS-CoV-2 spike (S) protein, Omicron BA.2 (SARS-CoV-2) (UniProt P0DTC2); remark: listed apart in the source
[30] = biological target: SARS-CoV-2 spike (S) protein, Omicron BA.2.3.20 (SARS-CoV-2) (UniProt P0DTC2)
[31] = biological target: SARS-CoV-2 spike (S) protein, Omicron BA.2.75 (SARS-CoV-2) (UniProt P0DTC2); remark: listed apart in the source
[32] = biological target: SARS-CoV-2 spike (S) protein, Omicron BA.2.75.2 (SARS-CoV-2) (UniProt P0DTC2)
[33] = biological target: SARS-CoV-2 spike (S) protein, Omicron BA.4.6 (SARS-CoV-2) (UniProt P0DTC2)
[34] = biological target: SARS-CoV-2 spike (S) protein, Omicron BA.4/5 (SARS-CoV-2) (UniProt P0DTC2); remark: listed apart in the source
[35] = biological target: SARS-CoV-2 spike (S) protein, Omicron BJ.1 (SARS-CoV-2) (UniProt P0DTC2)
[36] = biological target: SARS-CoV-2 spike (S) protein, Victoria strain (SARS-CoV-2) (UniProt P0DTC2); remark: listed apart in the source

Sequence of Omi-18 (antibody) (VH): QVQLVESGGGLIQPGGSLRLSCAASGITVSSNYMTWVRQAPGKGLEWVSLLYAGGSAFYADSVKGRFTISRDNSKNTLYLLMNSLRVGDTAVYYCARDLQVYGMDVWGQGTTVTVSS
Sequence of Omi-18 (antibody) (VL): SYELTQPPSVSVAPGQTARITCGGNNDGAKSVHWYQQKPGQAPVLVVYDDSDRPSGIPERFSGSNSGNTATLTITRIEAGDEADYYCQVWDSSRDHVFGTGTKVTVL
Sequence of Omi-12 (antibody) (VH): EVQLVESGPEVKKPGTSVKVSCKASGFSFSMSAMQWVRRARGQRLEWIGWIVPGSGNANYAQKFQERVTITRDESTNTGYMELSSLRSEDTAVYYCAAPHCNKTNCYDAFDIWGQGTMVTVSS
Sequence of Omi-12 (antibody) (VL): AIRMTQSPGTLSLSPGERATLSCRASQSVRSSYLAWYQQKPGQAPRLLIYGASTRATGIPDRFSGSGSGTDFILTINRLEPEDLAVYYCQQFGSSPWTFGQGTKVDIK
Sequence of Omi-29 (antibody) (VH): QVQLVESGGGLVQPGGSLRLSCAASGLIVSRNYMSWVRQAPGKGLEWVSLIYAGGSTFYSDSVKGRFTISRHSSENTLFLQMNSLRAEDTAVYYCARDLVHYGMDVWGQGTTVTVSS
Sequence of Omi-29 (antibody) (VL): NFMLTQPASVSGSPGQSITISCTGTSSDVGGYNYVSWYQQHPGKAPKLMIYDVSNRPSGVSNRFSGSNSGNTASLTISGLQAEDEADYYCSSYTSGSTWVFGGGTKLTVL

Omi-03 (antibody)
Authentic virus-IC50 [1]: 12 ng/mL
IC50, authentic virus neutralization [2]: 12 ng/mL
Authentic virus-IC50 [3]: 9 ng/mL
IC50, authentic virus neutralization [4]: 9 ng/mL
Authentic virus-IC50 [5]: 4 ng/mL
IC50, authentic virus neutralization [5]: 4 ng/mL
Authentic virus-IC50 [6]: 4 ng/mL
IC50, authentic virus neutralization [7]: 4 ng/mL
Authentic virus-IC50 [8]: 9 ng/mL
IC50, authentic virus neutralization [9]: 9 ng/mL
IC50, pseudovirus neutralization [10]: 5 ng/mL
Pseudovirus - IC50 [11]: 5 ng/mL
IC50, authentic virus neutralization [12]: 15 ng/mL
IC50, pseudovirus neutralization [12]: 3 ng/mL
Pseudovirus - IC50 [13]: 3 ng/mL
IC50, authentic virus neutralization [14]: 28 ng/mL
IC50, pseudovirus neutralization [14]: 8 ng/mL
Pseudovirus - IC50 [15]: 8 ng/mL
IC50, pseudovirus neutralization [16]: 22 ng/mL
Pseudovirus - IC50 [17]: 22 ng/mL
IC50, pseudovirus neutralization [18]: 17 ng/mL
Authentic virus-IC50 [19]: 7 ng/mL
IC50, authentic virus neutralization [19]: 7 ng/mL
IC50, pseudovirus neutralization [19]: 3 ng/mL
Pseudovirus - IC50 [19]: 3 ng/mL
pseudovirus neutralisation IC50 [20]: 5 ng/mL
pseudovirus neutralisation IC50 [21]: 3 ng/mL
pseudovirus neutralisation IC50 [22]: 8 ng/mL
pseudovirus neutralisation IC50 [23]: 17 ng/mL
pseudovirus neutralisation IC50 [24]: 22 ng/mL
pseudovirus neutralisation IC50 [25]: 17 ng/mL
pseudovirus neutralisation IC50 [26]: 3 ng/mL
pseudovirus neutralisation IC50 [27]: 8 ng/mL
pseudovirus neutralisation IC50 [28]: 17 ng/mL
IC50, pseudoviral neutralization [29]: 8 ng/mL
IC50, pseudoviral neutralization [30]: 20 ng/mL
IC50, pseudoviral neutralization [31]: 17 ng/mL
IC50, pseudoviral neutralization [32]: 546 ng/mL
IC50, pseudoviral neutralization [33]: 6 ng/mL
IC50, pseudoviral neutralization [34]: 17 ng/mL
IC50, pseudoviral neutralization [35]: 14 ng/mL
IC50, pseudoviral neutralization [36]: 3 ng/mL

Omi-12 (antibody)
Authentic virus-IC50 [1]: 3 ng/mL
IC50, authentic virus neutralization [2]: 3 ng/mL
Authentic virus-IC50 [3]: 6 ng/mL
IC50, authentic virus neutralization [4]: 6 ng/mL
Authentic virus-IC50 [5]: 3 ng/mL
IC50, authentic virus neutralization [5]: 3 ng/mL
Authentic virus-IC50 [6]: 3 ng/mL
IC50, authentic virus neutralization [7]: 3 ng/mL
Authentic virus-IC50 [8]: 4 ng/mL
IC50, authentic virus neutralization [9]: 4 ng/mL
IC50, pseudovirus neutralization [10]: 2 ng/mL
Pseudovirus - IC50 [11]: 2 ng/mL
IC50, authentic virus neutralization [12]: 9 ng/mL
IC50, pseudovirus neutralization [12]: 2 ng/mL
Pseudovirus - IC50 [13]: 2 ng/mL
IC50, authentic virus neutralization [14]: 10 ng/mL
IC50, pseudovirus neutralization [14]: 3 ng/mL
Pseudovirus - IC50 [15]: 3 ng/mL
IC50, pseudovirus neutralization [16]: 6 ng/mL
Pseudovirus - IC50 [17]: 6 ng/mL
IC50, pseudovirus neutralization [18]: 429 ng/mL
Authentic virus-IC50 [19]: 5 ng/mL
IC50, authentic virus neutralization [19]: 5 ng/mL
IC50, pseudovirus neutralization [19]: 6 ng/mL
Pseudovirus - IC50 [19]: 6 ng/mL
pseudovirus neutralisation IC50 [20]: 2 ng/mL
pseudovirus neutralisation IC50 [21]: 2 ng/mL
pseudovirus neutralisation IC50 [22]: 3 ng/mL
pseudovirus neutralisation IC50 [23]: 3 ng/mL
pseudovirus neutralisation IC50 [24]: 6 ng/mL
pseudovirus neutralisation IC50 [25]: 429 ng/mL
pseudovirus neutralisation IC50 [26]: 6 ng/mL
pseudovirus neutralisation IC50 [27]: 3 ng/mL
pseudovirus neutralisation IC50 [28]: 3 ng/mL
IC50, pseudoviral neutralization [29]: 3 ng/mL
IC50, pseudoviral neutralization [30]: 8 ng/mL
IC50, pseudoviral neutralization [31]: 3 ng/mL
IC50, pseudoviral neutralization [32]: > 10000 ng/mL
IC50, pseudoviral neutralization [33]: 74 ng/mL
IC50, pseudoviral neutralization [34]: 429 ng/mL
IC50, pseudoviral neutralization [35]: 4 ng/mL
IC50, pseudoviral neutralization [36]: 6 ng/mL

Omi-18 (antibody)
Authentic virus-IC50 [1]: 38 ng/mL
IC50, authentic virus neutralization [2]: 38 ng/mL
Authentic virus-IC50 [3]: 18 ng/mL
IC50, authentic virus neutralization [4]: 18 ng/mL
Authentic virus-IC50 [5]: 25 ng/mL
IC50, authentic virus neutralization [5]: 25 ng/mL
Authentic virus-IC50 [6]: 16 ng/mL
IC50, authentic virus neutralization [7]: 16 ng/mL
Authentic virus-IC50 [8]: 6 ng/mL
IC50, authentic virus neutralization [9]: 6 ng/mL
IC50, pseudovirus neutralization [10]: 2 ng/mL
Pseudovirus - IC50 [11]: 2 ng/mL
IC50, authentic virus neutralization [12]: 6 ng/mL
IC50, pseudovirus neutralization [12]: 2 ng/mL
Pseudovirus - IC50 [13]: 2 ng/mL
IC50, authentic virus neutralization [14]: 7 ng/mL
IC50, pseudovirus neutralization [14]: 5 ng/mL
Pseudovirus - IC50 [15]: 5 ng/mL
IC50, pseudovirus neutralization [16]: 6 ng/mL
Pseudovirus - IC50 [17]: 6 ng/mL
IC50, pseudovirus neutralization [18]: 5 ng/mL
Authentic virus-IC50 [19]: 41 ng/mL
IC50, authentic virus neutralization [19]: 41 ng/mL
IC50, pseudovirus neutralization [19]: 8 ng/mL
Pseudovirus - IC50 [19]: 8 ng/mL
pseudovirus neutralisation IC50 [20]: 2 ng/mL
pseudovirus neutralisation IC50 [21]: 2 ng/mL
pseudovirus neutralisation IC50 [22]: 5 ng/mL
pseudovirus neutralisation IC50 [23]: 35 ng/mL
pseudovirus neutralisation IC50 [24]: 6 ng/mL
pseudovirus neutralisation IC50 [25]: 5 ng/mL
pseudovirus neutralisation IC50 [26]: 8 ng/mL
pseudovirus neutralisation IC50 [27]: 5 ng/mL
pseudovirus neutralisation IC50 [28]: 35 ng/mL
IC50, pseudoviral neutralization [29]: 5 ng/mL
IC50, pseudoviral neutralization [30]: 11 ng/mL
IC50, pseudoviral neutralization [31]: 35 ng/mL
IC50, pseudoviral neutralization [32]: 4800 ng/mL
IC50, pseudoviral neutralization [33]: 6 ng/mL
IC50, pseudoviral neutralization [34]: 5 ng/mL
IC50, pseudoviral neutralization [35]: 5 ng/mL
IC50, pseudoviral neutralization [36]: 8 ng/mL

Omi-29 (antibody)
Authentic virus-IC50 [1]: 66 ng/mL
IC50, authentic virus neutralization [2]: 66 ng/mL
Authentic virus-IC50 [3]: 48 ng/mL
IC50, authentic virus neutralization [4]: 48 ng/mL
Authentic virus-IC50 [5]: 29 ng/mL
IC50, authentic virus neutralization [5]: 29 ng/mL
Authentic virus-IC50 [6]: 40 ng/mL
IC50, authentic virus neutralization [7]: 40 ng/mL
Authentic virus-IC50 [8]: 36 ng/mL
IC50, authentic virus neutralization [9]: 36 ng/mL
IC50, pseudovirus neutralization [10]: 17 ng/mL
Pseudovirus - IC50 [11]: 17 ng/mL
IC50, authentic virus neutralization [12]: 52 ng/mL
IC50, pseudovirus neutralization [12]: 16 ng/mL
Pseudovirus - IC50 [13]: 16 ng/mL
IC50, authentic virus neutralization [14]: 192 ng/mL
IC50, pseudovirus neutralization [14]: 56 ng/mL
Pseudovirus - IC50 [15]: 56 ng/mL
IC50, pseudovirus neutralization [16]: 64 ng/mL
Pseudovirus - IC50 [17]: 64 ng/mL
IC50, pseudovirus neutralization [18]: 396 ng/mL
Authentic virus-IC50 [19]: 44 ng/mL
IC50, authentic virus neutralization [19]: 44 ng/mL
IC50, pseudovirus neutralization [19]: 14 ng/mL
Pseudovirus - IC50 [19]: 14 ng/mL
pseudovirus neutralisation IC50 [20]: 17 ng/mL
pseudovirus neutralisation IC50 [21]: 16 ng/mL
pseudovirus neutralisation IC50 [22]: 56 ng/mL
pseudovirus neutralisation IC50 [23]: > 10000 ng/mL
pseudovirus neutralisation IC50 [24]: 64 ng/mL
pseudovirus neutralisation IC50 [25]: 396 ng/mL
pseudovirus neutralisation IC50 [26]: 14 ng/mL
pseudovirus neutralisation IC50 [27]: 56 ng/mL
pseudovirus neutralisation IC50 [28]: > 10000 ng/mL
IC50, pseudoviral neutralization [29]: 56 ng/mL
IC50, pseudoviral neutralization [30]: > 10000 ng/mL
IC50, pseudoviral neutralization [31]: > 10000 ng/mL
IC50, pseudoviral neutralization [32]: > 10000 ng/mL
IC50, pseudoviral neutralization [33]: 170 ng/mL
IC50, pseudoviral neutralization [34]: 396 ng/mL
IC50, pseudoviral neutralization [35]: 25 ng/mL
IC50, pseudoviral neutralization [36]: 14 ng/mL
